Starred links: 1 amine or outer side, 2 acyl side, 3 side chain; linkers in the order of their positions; H or OH if unused. Non-standard residues stand in square brackets, D forms with d. Groups on a side chain read outwards from the residue. No end group written: not given here. *: point of attachment. C20 diacid = O=C(O)CCCCCCCCCCCCCCCCCCC(=O)*; C18 diacid = O=C(O)CCCCCCCCCCCCCCCCC(=O)*; γGlu = O=C(O)[C@H](CCC(=O)[*:2])N[*:1]; αMeF = C[C@](N)(Cc1ccccc1)C(=O)O; AEEA = NCCOCCOCC(=O)O; Aib = CC(C)(N)C(=O)O
B1: Peptide 285 (peptide)
peptide: HSHGS[αMeF]TSDVSK[αMeF]LDSRAAK([AEEA-AEEA-γGlu-C18 diacid])D[αMeF]VQ[Aib]IANT-NH2
B2: Peptide 292 (peptide)
peptide: H[Aib]HGS[αMeF]TSDVSKYLDSRAAKDFVQWIANT-NH2
modifications: not fully specified (residue 20)
B3: Peptide 287 (peptide)
peptide: H[Aib]HGS[αMeF]TSDVSK[αMeF]LDSRAAK([AEEA-AEEA-γGlu-C18 diacid])DFVQ[Aib]IANT-NH2
B4: Peptide 300 (peptide)
peptide: H[Aib]HGS[αMeF]TSDVSK[αMeF]LDSRAAK([AEEA-AEEA-γGlu-C18 diacid])D[αMeF]VQ[Aib]IAET-NH2
modifications: N-terminus assumed
SMILES: CC[C@H](C)[C@H](NC(=O)C(C)(C)NC(=O)[C@H](CCC(N)=O)NC(=O)[C@@H](NC(=O)[C@](C)(Cc1ccccc1)NC(=O)[C@H](CC(=O)O)NC(=O)[C@H](CCCCNC(=O)COCCOCCNC(=O)COCCOCCNC(=O)CC[C@H](NC(=O)CCCCCCCCCCCCCCCCC(=O)O)C(=O)O)NC(=O)[C@H](C)NC(=O)[C@H](C)NC(=O)[C@H](CCCNC(=N)N)NC(=O)[C@H](CO)NC(=O)[C@H](CC(=O)O)NC(=O)[C@H](CC(C)C)NC(=O)[C@](C)(Cc1ccccc1)NC(=O)[C@H](CCCCN)NC(=O)[C@H](CO)NC(=O)[C@@H](NC(=O)[C@H](CC(=O)O)NC(=O)[C@H](CO)NC(=O)[C@@H](NC(=O)[C@](C)(Cc1ccccc1)NC(=O)[C@H](CO)NC(=O)CNC(=O)[C@H](Cc1c[nH]cn1)NC(=O)C(C)(C)NC(=O)[C@@H](N)Cc1c[nH]cn1)[C@@H](C)O)C(C)C)C(C)C)C(=O)N[C@@H](C)C(=O)N[C@@H](CCC(=O)O)C(=O)N[C@H](C(N)=O)[C@@H](C)O
B5: Peptide 274 (peptide)
peptide: H[Aib]HGS[αMeF]TSDVSK[αMeF]LDSRAAK([AEEA-γGlu-γGlu-C18 diacid])D[αMeF]VQ[Aib]IANT-NH2
B6: Peptide 295 (peptide)
peptide: H[Aib]HGS[αMeF]TSDVSK[Aib]LDSRAAK([AEEA-AEEA-γGlu-γGlu-C20 diacid])D[αMeF]VQ[Aib]IANT-NH2
B7: Peptide 302 (peptide)
peptide: H[Aib]HGS[αMeF]TSDVSK[αMeF]LDSRAAK([AEEA-AEEA-γGlu-γGlu-C20 diacid])D[αMeF]IA[Aib]IAET-NH2
B8: Peptide 304 (peptide)
peptide: H[Aib]HGS[αMeF]TSDVSK[αMeF]LDSRAAK([AEEA-AEEA-γGlu-γGlu-C20 diacid])D[αMeF]VQ[Aib]IANT-OH
B9: Peptide 278 (peptide)
peptide: H[Aib]HGS[αMeF]TSDVSK[αMeF]LDSRAAK([AEEA-C20 diacid])D[αMeF]VQ[Aib]IANT-NH2
B10: Peptide 281 (peptide)
peptide: H[Aib]HGS[αMeF]TSDVSK[αMeF]LDSRAAK([AEEA-AEEA-γGlu-γGlu-C20 diacid])D[αMeF]VQ[Aib]IANT-NH2
B11: Peptide 286 (peptide)
peptide: H[Aib]HGS[αMeF]TSDVSKYLDSRAAK([AEEA-AEEA-γGlu-C18 diacid])D[αMeF]VQ[Aib]IANT-NH2
modifications: not fully specified; also: X13: αMePhe or Y (table)
B12: Peptide 280 (peptide)
peptide: H[Aib]HGS[αMeF]TSDVSK[αMeF]LDSRAAK([AEEA-AEEA-γGlu-C20 diacid])D[αMeF]VQ[Aib]IANT-NH2
B13: Peptide 276 (peptide)
peptide: H[Aib]HGS[αMeF]TSDVSK[αMeF]LDSRAAK([γGlu-C20 diacid])D[αMeF]VQ[Aib]IANT-NH2
B14: Peptide 271 (peptide)
peptide: H[Aib]HGS[αMeF]TSDVSK[αMeF]LDSRAAK([γGlu-C18 diacid])D[αMeF]VQ[Aib]IANT-NH2
modifications: N-terminus assumed
SMILES: CC[C@H](C)[C@H](NC(=O)C(C)(C)NC(=O)[C@H](CCC(N)=O)NC(=O)[C@@H](NC(=O)[C@](C)(Cc1ccccc1)NC(=O)[C@H](CC(=O)O)NC(=O)[C@H](CCCCNC(=O)CC[C@H](NC(=O)CCCCCCCCCCCCCCCCC(=O)O)C(=O)O)NC(=O)[C@H](C)NC(=O)[C@H](C)NC(=O)[C@H](CCCNC(=N)N)NC(=O)[C@H](CO)NC(=O)[C@H](CC(=O)O)NC(=O)[C@H](CC(C)C)NC(=O)[C@](C)(Cc1ccccc1)NC(=O)[C@H](CCCCN)NC(=O)[C@H](CO)NC(=O)[C@@H](NC(=O)[C@H](CC(=O)O)NC(=O)[C@H](CO)NC(=O)[C@@H](NC(=O)[C@](C)(Cc1ccccc1)NC(=O)[C@H](CO)NC(=O)CNC(=O)[C@H](Cc1c[nH]cn1)NC(=O)C(C)(C)NC(=O)[C@@H](N)Cc1c[nH]cn1)[C@@H](C)O)C(C)C)C(C)C)C(=O)N[C@@H](C)C(=O)N[C@@H](CC(N)=O)C(=O)N[C@H](C(N)=O)[C@@H](C)O
B15: Peptide 282 (peptide)
peptide: H[Aib]HGS[αMeF]TSDVSK[αMeF]LDSRAAK([AEEA-AEEA-γGlu-γGlu-C20 diacid])D[αMeF]VQ[Aib]IANT-NH2
modifications: not fully specified
B16: Peptide 277 (peptide)
peptide: H[Aib]HGS[αMeF]TSDVSK[αMeF]LDSRAAK([AEEA-AEEA-C20 diacid])D[αMeF]VQ[Aib]IANT-NH2
B17: Peptide 298 (peptide)
peptide: H[Aib]HGS[αMeF]TSDVSR[αMeF]LDSRAAK([AEEA-AEEA-γGlu-γGlu-C20 diacid])D[αMeF]VQ[Aib]IANT-NH2
modifications: N-terminus assumed
SMILES: CC[C@H](C)[C@H](NC(=O)C(C)(C)NC(=O)[C@H](CCC(N)=O)NC(=O)[C@@H](NC(=O)[C@](C)(Cc1ccccc1)NC(=O)[C@H](CC(=O)O)NC(=O)[C@H](CCCCNC(=O)COCCOCCNC(=O)COCCOCCNC(=O)CC[C@H](NC(=O)CC[C@H](NC(=O)CCCCCCCCCCCCCCCCCCC(=O)O)C(=O)O)C(=O)O)NC(=O)[C@H](C)NC(=O)[C@H](C)NC(=O)[C@H](CCCNC(=N)N)NC(=O)[C@H](CO)NC(=O)[C@H](CC(=O)O)NC(=O)[C@H](CC(C)C)NC(=O)[C@](C)(Cc1ccccc1)NC(=O)[C@H](CCCNC(=N)N)NC(=O)[C@H](CO)NC(=O)[C@@H](NC(=O)[C@H](CC(=O)O)NC(=O)[C@H](CO)NC(=O)[C@@H](NC(=O)[C@](C)(Cc1ccccc1)NC(=O)[C@H](CO)NC(=O)CNC(=O)[C@H](Cc1c[nH]cn1)NC(=O)C(C)(C)NC(=O)[C@@H](N)Cc1c[nH]cn1)[C@@H](C)O)C(C)C)C(C)C)C(=O)N[C@@H](C)C(=O)N[C@@H](CC(N)=O)C(=O)N[C@H](C(N)=O)[C@@H](C)O
B18: Peptide 290 (peptide)
peptide: H[Aib]HGS[αMeF]TSDVSK[αMeF]LDSRAAK([AEEA-AEEA-γGlu-γGlu-C20 diacid])DFVQWIANT-NH2
modifications: not fully specified
B19: Peptide 284 (peptide)
peptide: H[Aib]HGS[αMeF]TSDVSK[αMeF]LDSRAAK([AEEA-AEEA-γGlu-C18 diacid])D[αMeF]VQ[Aib]IANT-NH2
B20: Peptide 279 (peptide)
peptide: H[Aib]HGS[αMeF]TSDVSK[αMeF]LDSRAAK([AEEA-γGlu-γGlu-C20 diacid])D[αMeF]VQ[Aib]IANT-NH2
B21: Peptide 296 (peptide)
peptide: H[Aib]HGS[αMeF]TSDVSK[Aib]LDSRAAK([AEEA-AEEA-γGlu-C18 diacid])D[αMeF]VQ[Aib]IANT-NH2
B22: Peptide 289 (peptide)
peptide: H[Aib]HGS[αMeF]TSDVSK[αMeF]LDSRAAKD[αMeF]VQWIANT-NH2
modifications: not fully specified (residue 20); also: X13: αMePhe or Y (table)
B23: Peptide 272 (peptide)
peptide: H[Aib]HGS[αMeF]TSDVSK[αMeF]LDSRAAK([AEEA-AEEA-C18 diacid])D[αMeF]VQ[Aib]IANT-NH2
B24: Peptide 288 (peptide)
peptide: H[Aib]HGS[αMeF]TSDVSK[αMeF]LDSRAAK([AEEA-AEEA-γGlu-C18 diacid])D[αMeF]VQWIANT-NH2
B25: Peptide 275 (peptide)
peptide: H[Aib]HGS[αMeF]TSDVSK[αMeF]LDSRAAK([γGlu-γGlu-C20 diacid])D[αMeF]VQ[Aib]IANT-NH2
B26: Peptide 273 (peptide)
peptide: H[Aib]HGS[αMeF]TSDVSK[αMeF]LDSRAAK([AEEA-C18 diacid])D[αMeF]VQ[Aib]IANT-NH2

target: human GLP-1 receptor (human, UniProt P43220); assay: cell-based or functional assay

Binder	hGLP-1R EC50 (pM)
B1	301
B2	28.7
B3	27.5
B4	19.7
B5	27.1
B6	312
B7	151
B8	239
B9	78.9
B10	155
B11	31.6
B12	78.3
B13	143
B14	54.6
B15	1230
B16	49.5
B17	75.5
B18	347
B19	43.4
B20	86.5
B21	64.1
B22	118
B23	15.7
B24	42.7
B25	111
B26	22.1

target: human glucagon receptor (human, UniProt P47871); assay: cell-based or functional assay

Binder	hGluc-R EC50 (pM)
B1	87
B2	20.4
B3	26.5
B4	18.4
B5	31.3
B6	17100
B7	271
B8	687
B9	83.5
B10	1040
B11	53
B12	155
B13	91.4
B14	28
B15	1140
B16	57.3
B17	573
B18	260
B19	119
B20	150
B21	3250
B22	148
B23	14.3
B24	26.9
B25	175
B26	23.3

— US12630600B2 (MEDIMMUNE LIMITED, priority 2022, dated 2026)
